Test results reported in publication PMC3727933 (Molecular Biology of the Cell, 2013).

Target: the molecule itself
Experiment: SEC

B1: Nwk^1-428∆tips (domain or fragment, Drosophila, UniProt X2JAU8 1-428, looked up)
chain: MQPPPRKGNYVKFLKNLHTEQVAKLQLKNQHECDLLEDIRQFTIKRSAVEKSYSESLLKISSQYLNKKIPNIPDIKMEGMEERWNMWSVWRTVLEENEKLARARLAAIEVFQQQIADEAKVLRDYKLAIAKRSLAGIVNVQKELHLSVGDVDKTKKSYFDEEHCAHDVRDKARDIEEKLKNLITSLQKNSARVTSRKELLEEKSSGARNDYVLSLAAANAHQNRYFTVDLQTTMTTMENYVFERVAEYLMLMGRTELLTCSATQNSFGKIRDQAQQLTREYNLQCCYLFYPVLKQHIQYDFEACDNDPVRKVTAEHESAAETLTKEAKNLAGRVVKENASIRENAKKLALCQSLRDSGQRTDPNDPNGPDLDTKIEEFRDQIRRSETEKTKAEACLQCLRDGGINVDEWVQEAENMGVQEL
stoichiometry N: 2
